Experimental data published in article PMC2768988 (2009).

Molecular target: T1, Flrt3 ectodomain (zebrafish, biotin on the enzymatically biotinylatable sequence (bait form))
T1 chain: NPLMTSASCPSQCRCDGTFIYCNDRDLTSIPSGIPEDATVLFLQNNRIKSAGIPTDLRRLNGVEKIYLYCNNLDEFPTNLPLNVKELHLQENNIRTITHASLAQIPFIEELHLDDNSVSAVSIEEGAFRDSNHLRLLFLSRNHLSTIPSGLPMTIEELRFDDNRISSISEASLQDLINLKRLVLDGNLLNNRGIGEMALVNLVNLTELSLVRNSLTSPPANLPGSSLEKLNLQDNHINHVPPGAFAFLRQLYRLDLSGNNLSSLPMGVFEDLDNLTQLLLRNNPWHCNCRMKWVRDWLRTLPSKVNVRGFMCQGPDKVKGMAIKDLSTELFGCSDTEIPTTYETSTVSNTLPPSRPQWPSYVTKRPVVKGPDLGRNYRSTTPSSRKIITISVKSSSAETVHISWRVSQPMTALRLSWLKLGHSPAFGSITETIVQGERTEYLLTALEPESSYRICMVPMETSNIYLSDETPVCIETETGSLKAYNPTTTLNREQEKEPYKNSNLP
Assay: SPR

koff: 5.5 s⁻¹
B1: Unc5b-Cd4d3+4-6His (domain or fragment)
chain: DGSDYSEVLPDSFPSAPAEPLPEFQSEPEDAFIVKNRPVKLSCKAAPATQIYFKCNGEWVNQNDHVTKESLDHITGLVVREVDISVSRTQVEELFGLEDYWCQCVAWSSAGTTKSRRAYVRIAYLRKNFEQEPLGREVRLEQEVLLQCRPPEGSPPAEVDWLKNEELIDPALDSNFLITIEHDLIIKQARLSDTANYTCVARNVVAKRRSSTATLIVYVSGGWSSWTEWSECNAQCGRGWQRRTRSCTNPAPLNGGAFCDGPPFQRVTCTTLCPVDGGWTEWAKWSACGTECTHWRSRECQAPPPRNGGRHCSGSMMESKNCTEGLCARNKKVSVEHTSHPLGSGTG
